Source: article doi:10.1101/2020.09.30.318972 (bioRxiv, 2020)

Target: soluble prefusion-stabilized trimeric SARS-CoV-2 spike protein (SARS-CoV-2, Wuhan-Hu-1 (MN908947.3), UniProt P0DTC2, stabilised)
Experiment: cryo-EM structure

B1: LY-CoV555 Fab (Fab, V domains shown)
VH: QVQLVQSGAEVKKPGSSVKVSCKASGGTFSNYAISWVRQAPGQGLEWMGRIIPILGIANYAQKFQGRVTITADKSTSTAYMELSSLRSEDTAVYYCARGYYEARHYYYYYAMDVWGQGTAVTVSS
VL: not shown
B1: binds.
